# From patent US20220175781A1, “CD40L COMPOSITIONS AND METHODS FOR TUNABLE REGULATION” (Obsidian Therapeutics, Inc., priority 2019, published 2022)
# Positions count from the first letter of the chain named. Several values for one entry are separate records, joined by “and”; a condition that tells them apart may be missing. Equal values may be shown once.
# B1: OT-002035: CD40L-ecDHFR construct of Table 39 (protein)
# chain: MSGISLIAALAVDRVIGMENAMPWNLPADLAWFKRNTLNKPVIMGRHTWESIGRPLPGRKNIILSSQPGTDDRVTWVKSVDEAIAACGDVPEIMVIGGGRVREQFLPKAQKLYLTHIDAEVEGDTHFPDYEPDDWESVFSEFHDADAQNSHSYCFEILERRHMIETYNQTSPRSAATGLPISMKIFMYLLTVFLITQMIGSALFAVYLHRRLDKIEDERNLHEDFVFMKTIQRCNTGERSLSLLNCEEIKSQFEGFVKDIMLNKEETKKENSFEMQKGDQNPQIAAHVISEASSKTTSVLQWAEKGYYTMSNNLVTLENGKQLTVKRQGLYYIYAQVTFCSNREASSQAPFIASLCLKSPGRFERILLRAANTHSSAKPCGQQSIHLGGVFELQPGASVFVNVTDPSQVSHGTGFTSFGLLKL
# B2: OT-002034: TMP regulated CD40L construct stably expressed in Jurkat cells (protein)
# chain: B1 chain with R102Q
# B3: OT-001967: ER regulated CD40L construct with varied linker length (protein)
# chain: MSLALSLTADQMVSALLDAEPPILYSEYDPTRPFSEASMMGLLTNLADRELVHMINWAKRVPGFVDLTLHDQVHLLECAWMEILMIGLVWRSMEHPGKLLFAPNLLLDRDQGKCVEGGVEIFDMLLATSSRFRMMNLQGEEFVCLKSIILLNSGVYTFLSSTLKSLEEKDHIHRVLDKITDTLIHLMAKAGLTLQQQHQRLAQLLLILSHIRHMSNKRMEHLYSMKCKNVVPLSDLLLEMLDAHRLGSMIETYNQTSPRSAATGLPISMKIFMYLLTVFLITQMIGSALFAVYLHRRLDKIEDERNLHEDFVFMKTIQRCNTGERSLSLLNCEEIKSQFEGFVKDIMLNKEETKKENSFEMQKGDQNPQIAAHVISEASSKTTSVLQWAEKGYYTMSNNLVTLENGKQLTVKRQGLYYIYAQVTFCSNREASSQAPFIASLCLKSPGRFERILLRAANTHSSAKPCGQQSIHLGGVFELQPGASVFVNVTDPSQVSHGTGFTSFGLLKL
# B4: OT-001669: CD40L construct with deletion of amino acids 1-13 of CD40L, designed to reduce internalization (protein)
# chain: MHATGLPISMKIFMYLLTVFLITQMIGSALFAVYLHRRLDKIEDERNLHEDFVFMKTIQRCNTGERSLSLLNCEEIKSQFEGFVKDIMLNKEETKKENSFEMQKGDQNPQIAAHVISEASSKTTSVLQWAEKGYYTMSNNLVTLENGKQLTVKRQGLYYIYAQVTFCSNREASSQAPFIASLCLKSPGRFERILLRAANTHSSAKPCGQQSIHLGGVFELQPGASVFVNVTDPSQVSHGTGFTSFGLLKL
# Tests used:
# [1] = tested on: HEK293T cells; assay: CD40L-ecDHFR constructs, CD40L surface expression in transfected HEK293T cells; assay type: cell-based, human; settings: for SR (for % CD40L) / TMP/vehicle ratio of CD40L median fluorescence intensity: TMP (50 μM) versus Vehicle
# Procedure: HEK293T cells were transiently transfected with the constructs in Table 39 (1 μg of DNA). 24 hours after transfection, the media was removed and replaced with fresh medium containing 50 μM TMP or DMSO. Another 24 hours later cells were analyzed by flow cytometry for CD40L surface expression. Table 39 provides CD40L expression as both % CD40L positive cells and the Median fluorescence intensity (MFI) values.
# [2] = tested on: Jurkat cells; assay: In vivo CD40L regulation in Jurkat cells harvested from bone marrow of NSG mice; settings: for CD40L MFI values / Percent CD40L positive cells: Jurkat cells from bone marrow, day 16
# Description: Jurkat cells stably expressing OT-001661, OT-002034 were intravenously infused into 8-week old NSG mice (20 million cells per mouse). Starting by day 15, mice were orally dosed according to the study design shown in Table 42 and Jurkat cells were harvested on day 16 from the bone marrow and analyzed by FACS. In Tables 41 and 42, TMP refers to Trimethoprim and all dosing is relative to “0 hr” time point on day 16. The results are shown in Table 43 and Table 44 where “EV” refers to empty vector control.
# [3] = tested on: Jurkat cells; assay: Linker length, ER regulated CD40L, % CD40L positive Jurkat cells; assay type: cell-based
# Procedure: Jurkat cells were lentivirally transduced and 24 hours after transduction were treated with DMSO or 1 μM Bazedoxifene for another 24 hours and analyzed by flow cytometry for surface expression of CD40L. […] In Table 33, SR indicates stabilization ratio.
# [4] = tested on: T cells (CD4 and CD8 positive); assay: Bazedoxifene dose response, CD40L MFI in CD4 and CD8 positive T cells (day 4, freeze/thaw, restimulation); assay type: cell-based
# Procedure: Dose response with Bazedoxifene in T cells were conducted for OT-001966, OT-001967, OT-001666. Expression of CD40L was measured at (a) day 4 after transduction, (b) after freezing and thawing the cells or (c) after freezing and thawing the cells followed by restimulation with CD3/CD28 beads. The CD40L MFI (median fluorescence intensity) within CD4 and CD8 positive subpopulations is shown in Table 34 and Table 35 respectively.
# [5] = tested on: Jurkat cells; assay: CD40L shedding ELISA of supernatant, Jurkat cells with or without CD40-Fc receptor; assay type: cell-based; design: CD40L levels in supernatant: unit not given here; settings: 6 hours
# Procedure: Sheddases e.g. ADAM10/17 present in the tumor microenvironment can cleave CD40L thereby preventing the successful activation of CD40 by CD40L. […] OT-001669 which has a deletion of amino acids 1-13 of CD40L was designed to reduce internalization and OT-001668 which has a deletion of amino acids 110-116 of CD40L was designed to remove the ADAM10/17 sites. Jurkat cells stably expressing the full length construct OT-001661, OT-001669, or OT-001668 were cultured for 6 hours with 1.25 μg/ml recombinant human (h) or mouse (m) CD40-Fc receptor or left untreated and tested using an ELISA assay (Table 15).
# [6] = Jurkat cells from bone marrow of mice treated with TMP versus vehicle control or empty vector
# [7] = individual mice, TMP 500 mg/kg 3x oral
molecule,measurement,setting,value
B1,TMP mediated expression of CD40L,"[1]; HEK293T cells, 50 μM TMP or DMSO 24 hours",exception
same,% CD40L,[1]; TMP (50 μM),23.8%
same,MFI (Median),[1]; TMP (50 μM),8311
same,SR (for % CD40L),[1],0.89
same,TMP/vehicle ratio of CD40L median fluorescence intensity,[1],0.97
same,% CD40L,[1]; Vehicle,26.7%
same,MFI (Median),[1]; Vehicle,8535
B2,% CD40L,[1]; TMP (50 μM),71.1%
same,MFI (Median),[1]; TMP (50 μM),20569
same,SR (for % CD40L),[1],2.44
same,TMP/vehicle ratio of CD40L median fluorescence intensity,[1],2.59
same,% CD40L,[1]; Vehicle,29.1%
same,MFI (Median),[1]; Vehicle,7957
same,CD40L MFI values,"[2]; Average, TMP 500 mg/kg 3x oral",520.75
same,Percent CD40L positive cells,"[2]; Average, TMP 500 mg/kg 3x oral",53.4%
same,CD40L MFI values,"[2]; Average, Vehicle",93.65
same,Percent CD40L positive cells,"[2]; Average, Vehicle",1.82%
same,% CD40L positive cells,[2]; [6],increased
same,CD40L values (MFI),[2]; [6],increased
same,CD40L MFI values,[2]; [7],608 and 542 and 505 and 428
same,Percent CD40L positive cells,[2]; [7],61% and 56.3% and 52.2% and 44.1%
same,CD40L MFI values,"[2]; individual mice, Vehicle",101 and 80.6 and 97.9 and 95.1
same,Percent CD40L positive cells,"[2]; individual mice, Vehicle",2.36% and 0.83% and 2.17% and 1.92%
B3,Percent of Jurkat cells expressing CD40L,[3]; 1 μM Bazedoxifene,30%
same,SR,"[3]; 1 μM Bazedoxifene versus DMSO, % CD40L positive Jurkat cells",15
same,Percent of Jurkat cells expressing CD40L,[3]; DMSO,2%
same,CD40L expression (MFI),"[4]; CD4+ cells, Day 5, Bazedoxifene 0.01 nM",473
same,CD40L expression (MFI),"[4]; CD4+ cells, Day 5, Bazedoxifene 0.1 nM",474
same,CD40L expression (MFI),"[4]; CD4+ cells, Day 5, Bazedoxifene 1 nM",483
same,CD40L expression (MFI),"[4]; CD4+ cells, Day 5, Bazedoxifene 10 nM",497
same,CD40L expression (MFI),"[4]; CD4+ cells, Day 5, Bazedoxifene 100 nM",630
same,CD40L expression (MFI),"[4]; CD4+ cells, Day 5, Bazedoxifene 1000 nM",998
same,CD40L expression (MFI),"[4]; CD4+ cells, Day 5, Bazedoxifene 10000 nM",1000
same,CD40L expression (MFI),"[4]; CD4+ cells, Post Thaw, Bazedoxifene 0.01 nM",156
same,CD40L expression (MFI),"[4]; CD4+ cells, Post Thaw, Bazedoxifene 0.1 nM",160
same,CD40L expression (MFI),"[4]; CD4+ cells, Post Thaw, Bazedoxifene 1 nM",161
same,CD40L expression (MFI),"[4]; CD4+ cells, Post Thaw, Bazedoxifene 10 nM",172
same,CD40L expression (MFI),"[4]; CD4+ cells, Post Thaw, Bazedoxifene 100 nM",200
same,CD40L expression (MFI),"[4]; CD4+ cells, Post Thaw, Bazedoxifene 1000 nM",223
same,CD40L expression (MFI),"[4]; CD4+ cells, Post Thaw, Bazedoxifene 10000 nM",457
same,CD40L expression (MFI),"[4]; CD4+ cells, Restim, Bazedoxifene 0.01 nM",913
same,CD40L expression (MFI),"[4]; CD4+ cells, Restim, Bazedoxifene 0.1 nM",922
same,CD40L expression (MFI),"[4]; CD4+ cells, Restim, Bazedoxifene 1 nM",913
same,CD40L expression (MFI),"[4]; CD4+ cells, Restim, Bazedoxifene 10 nM",1131
same,CD40L expression (MFI),"[4]; CD4+ cells, Restim, Bazedoxifene 100 nM",1549
same,CD40L expression (MFI),"[4]; CD4+ cells, Restim, Bazedoxifene 1000 nM",1232
same,CD40L expression (MFI),"[4]; CD4+ cells, Restim, Bazedoxifene 10000 nM",291
same,CD40L expression (MFI),"[4]; CD8+ cells, Day 5, Bazedoxifene 0.01 nM",153
same,CD40L expression (MFI),"[4]; CD8+ cells, Day 5, Bazedoxifene 0.1 nM",153
same,CD40L expression (MFI),"[4]; CD8+ cells, Day 5, Bazedoxifene 1 nM",157
same,CD40L expression (MFI),"[4]; CD8+ cells, Day 5, Bazedoxifene 10 nM",158
same,CD40L expression (MFI),"[4]; CD8+ cells, Day 5, Bazedoxifene 100 nM",226
same,CD40L expression (MFI),"[4]; CD8+ cells, Day 5, Bazedoxifene 1000 nM",424
same,CD40L expression (MFI),"[4]; CD8+ cells, Day 5, Bazedoxifene 10000 nM",392
same,CD40L expression (MFI),"[4]; CD8+ cells, Post Thaw, Bazedoxifene 0.01 nM",108
same,CD40L expression (MFI),"[4]; CD8+ cells, Post Thaw, Bazedoxifene 0.1 nM",105
same,CD40L expression (MFI),"[4]; CD8+ cells, Post Thaw, Bazedoxifene 1 nM",108
same,CD40L expression (MFI),"[4]; CD8+ cells, Post Thaw, Bazedoxifene 10 nM",114
same,CD40L expression (MFI),"[4]; CD8+ cells, Post Thaw, Bazedoxifene 100 nM",149
same,CD40L expression (MFI),"[4]; CD8+ cells, Post Thaw, Bazedoxifene 1000 nM",178
same,CD40L expression (MFI),"[4]; CD8+ cells, Post Thaw, Bazedoxifene 10000 nM",263
same,CD40L expression (MFI),"[4]; CD8+ cells, Restim, Bazedoxifene 0.1 nM",269
same,CD40L expression (MFI),"[4]; CD8+ cells, Restim, Bazedoxifene 1 nM",274
same,CD40L expression (MFI),"[4]; CD8+ cells, Restim, Bazedoxifene 10 nM",265
same,CD40L expression (MFI),"[4]; CD8+ cells, Restim, Bazedoxifene 100 nM",326
same,CD40L expression (MFI),"[4]; CD8+ cells, Restim, Bazedoxifene 1000 nM",445
same,CD40L expression (MFI),"[4]; CD8+ cells, Restim, Bazedoxifene 10000 nM",372
B4,CD40L levels in supernatant,[5]; 1.25 μg/ml hCD40-Fc,8444.30
same,CD40L levels in supernatant,[5]; 1.25 μg/ml mCD40-Fc,4335.76
same,shedding of CD40L,[5]; 1.25 μg/ml recombinant human CD40-Fc,enhance the shedding
same,CD40L levels in supernatant,[5]; Untreated,2137.69
